The target in this assay is KIR3DL1-Fc (UniProt P43629). Nature of the assay: SPR; Biacore T200; KIR3DL1-Fc coupled to a series S Protein A chip at ~1000 RU; soluble monomers injected at 0-193 uM (wild type) or 0-234 uM (V97S); contact 300 s, dissociation 700 s; 25 C; HBS-EP+ buffer; 1:1 binding model. In general terms: Surface plasmon resonance follows binding to a sensor surface in real time, without labels.

As usually defined, the Kd is the equilibrium constant for the complex coming apart. A higher Kd goes with lower affinity.

Sequence of UniProt P43629 (P43629 22-320): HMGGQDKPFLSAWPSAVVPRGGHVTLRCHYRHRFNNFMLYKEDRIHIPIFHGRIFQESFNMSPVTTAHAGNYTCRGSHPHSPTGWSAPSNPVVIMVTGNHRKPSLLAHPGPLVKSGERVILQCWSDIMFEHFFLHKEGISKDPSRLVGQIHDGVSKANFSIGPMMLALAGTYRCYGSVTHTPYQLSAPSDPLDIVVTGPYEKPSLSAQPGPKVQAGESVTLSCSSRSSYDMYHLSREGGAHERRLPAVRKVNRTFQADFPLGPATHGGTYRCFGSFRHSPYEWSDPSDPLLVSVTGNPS

“soluble HLA-B*5701 V97S mutant monomer in complex with the TW10 peptide (from UniProt P61769 21-119) (peptide-MHC)” had a Kd of 185 µM.
